How the values were obtained:
[1] = system: gene expression in MC38 tumors; assay: RNA-Seq gene expression in MC38 tumors, Day 10; assay type: in vivo, mouse
Experimental: On Day 10 spleens and tumors were collected and weighed from all animals in Groups 7 through 12 and weighed prior to processing. Tissues from four animals in each group were processed to single cell suspensions for flow cytometry analysis at CRL-NC (described below). Tissues from the remaining six animals in each group were preserved in RNAlater, stored at −80° C.
Tumors and spleens were dissected on the appropriate day of the study and were weighed and immediately placed in RNAlater Stabilizing Reagent to preserve the tissue and stored overnight at 4 deg C. The following day, the samples were removed from RNA later and snap frozen and placed at −80 deg C.
Unless otherwise indicated, everything was done on ice and the materials were prechilled on ice. The tissues were homogenized in TRIzol in Precellys tissue grinding tubes. After homogenization, the TRIzol solutions were transferred to 1.5 ml tubes and spun for 5 min at 12,000×g to eliminate the insoluble material. The TRIzol solutions were then transferred to Phasemaker tubes. Chloroform was added, the tubes were capped, and shaken vigorously for 15 seconds. The samples were then incubated at room temperature for 2-15 minutes and centrifuged at 12,000×g for 5 minutes. The upper, aqueous phase was then transferred to a new tube and an equal volume of 70% ethanol was added and it was vortexed. The liquid was then transferred to Qiagen RNeasy columns and centrifuged at 8000×g. DNAse was added to each tube to eliminate any residual DNA. The columns were then washed and eluted as directed by the kit. The RNA concentrations were determined using a Qubit.
Libraries were prepared for sequencing by using the Mouse Transcriptome Ion AmpliSeq Library Preparation on the Ion Chef System as directed by the manufacturer. Eight samples of purified RNA and 8 unique IonCode molecular barcodes were added to a 96 well plate and were prepared at a time. After the libraries were prepared, they were templated and loaded onto an Ion Torrent 540 chip using the Ion 540 Chef Kit from ThermoFisher. The 540 chips were then loaded into a Gene Studio S5 sequencer and sequenced.
Raw sequencing data was processed by Torrent Suite (v5.8.0) software that came with the Gene Studio sequencer (ThermoFisher). For each sample, this program summarized gene expression in a CHP file. The CHP files were then loaded into the Transcriptome Analysis Console (TAC) program (ThermoFisher).

[2] = system: MC38 murine colon carcinoma cells; assay: Anti-tumor efficacy in subcutaneous MC38 syngeneic tumor model (tumor growth, survival); assay type: in vivo, mouse; settings: for tumor growth inhibition (TGI): Day 11
Experimental: The characteristics of each animal study group, the administration of the test articles and timing, the collection of samples and the overall study design are as shown in Tables 1 and 2:
(68-72° F.) and 40-60% humidity.
Additional aliquots were stored at 4° C. for use within 72 hours of formulation. Just prior to administration, dosing solutions were remixed with gentle inversion.
Group mean tumor volumes were plotted versus time. When an animal exited the study because of tumor size or TR death, its final recorded tumor volume was included with the data used to calculate the mean volume. Mean tumor volumes were calculated for a group until 50% of the animals had exited the study. Kaplan-Meier plots show the percentage of animals in each group remaining in the study versus time.

[3] = T cell signaling gene, MC38 tumors Day 10 RNA-Seq, lucitanib 10 mg/kg po, SEQ ID NO. 2 3 mg/kg sc
[4] = Type I/II interferon pathway gene, MC38 tumors Day 10 RNA-Seq, lucitanib 10 mg/kg po, SEQ ID NO. 2 3 mg/kg sc
[5] = antigen presentation gene, MC38 tumors Day 10 RNA-Seq, lucitanib 10 mg/kg po, SEQ ID NO. 2 3 mg/kg sc

B1: SEQ ID NO: 2: mouse ortholog construct (murine surrogate) of the circularly permuted IL-2/IL-2Rα fusion protein of SEQ ID NO: 1 (protein)
chain: SKSFQLEDAENFISNIRVTVVKLKGSDNTFECQFDDESATVVDFLRRWIAFCQSIISTSPQGGSSSTQQQQQHLEQLLMDLQELLSRMENYRNLKLPRMLTFKFYLPKQATELKDLQCLEDELGPLRHVLDLTQGSGGGSELCLYDPPEVPNATFKALSYKNGTILNCECKRGFRRLKELVYMRCLGNSWSSNCQCTSNSHDKSRKQVTAQLEHQKEQQTTTDMQKPTQSMHQENLTGHCREPPPWKHEDSKRIYHFVEGQSVHYECIPGYKALQRGPAISICKMKCGKTGWTQPQLTCVDGSHHHHHH
modifications: Mouse cpIL-2IL-2R-alpha
Cd3e mean expression value relative to vehicle group [1, 3]: 3.81
Cd4 mean expression value relative to vehicle group [1, 3]: 1.46
Cd8a mean expression value relative to vehicle group [1, 3]: 4.64
Cd8b1 mean expression value relative to vehicle group [1, 3]: 8.03
Cd28 mean expression value relative to vehicle group [1, 3]: 2.86
Cd247 mean expression value relative to vehicle group [1, 3]: 3.95
Cd3d mean expression value relative to vehicle group [1, 3]: 5.96
Ctla4 mean expression value relative to vehicle group [1, 3]: 0.60
H2-Aa mean expression value relative to vehicle group [1, 3]: 1.27
H2-Ab1 mean expression value relative to vehicle group [1, 3]: 2.25
H2-Eb1 mean expression value relative to vehicle group [1, 3]: 1.29
Icos mean expression value relative to vehicle group [1, 3]: 1.69
Ifng mean expression value relative to vehicle group [1, 3]: 2.06
Il2 mean expression value relative to vehicle group [1, 3]: 0.31
Lck mean expression value relative to vehicle group [1, 3]: 4.42
Lcp2 mean expression value relative to vehicle group [1, 3]: 0.23
Nfatc2 mean expression value relative to vehicle group [1, 3]: 0.67
Pdcd1 mean expression value relative to vehicle group [1, 3]: 2.42
Ptpn22 mean expression value relative to vehicle group [1, 3]: 2.19
Ptprc mean expression value relative to vehicle group [1, 3]: 2.32
Zap70 mean expression value relative to vehicle group [1, 3]: 2.63
B2m mean expression value relative to vehicle group [1, 4]: 0.03
Bst2 mean expression value relative to vehicle group [1, 4]: 0.08
Cd44 mean expression value relative to vehicle group [1, 4]: −0.19
Ciita mean expression value relative to vehicle group [1, 4]: 1.36
Fcgr1 mean expression value relative to vehicle group [1, 4]: 1.12
Gm10499 mean expression value relative to vehicle group [1, 4]: −0.02
H2-Aa mean expression value relative to vehicle group [1, 4]: 1.27
H2-Ab1 mean expression value relative to vehicle group [1, 4]: 2.25
H2-Eb1 mean expression value relative to vehicle group [1, 4]: 1.29
H2-K1 mean expression value relative to vehicle group [1, 4]: 0.04
H2-Q10 mean expression value relative to vehicle group [1, 4]: −0.28
Icam1 mean expression value relative to vehicle group [1, 4]: 0.88
Ifi35 mean expression value relative to vehicle group [1, 4]: 0.38
Ifit2 mean expression value relative to vehicle group [1, 4]: 0.54
Ifitm1 mean expression value relative to vehicle group [1, 4]: −0.13
Ifna2 mean expression value relative to vehicle group [1, 4]: 0
Ifnar1 mean expression value relative to vehicle group [1, 4]: 0.35
Ifnar2 mean expression value relative to vehicle group [1, 4]: 0.2
Ifnb1 mean expression value relative to vehicle group [1, 4]: −0.16
Ifng mean expression value relative to vehicle group [1, 4]: 2.06
Ifngr1 mean expression value relative to vehicle group [1, 4]: 0.23
Irf1 mean expression value relative to vehicle group [1, 4]: −0.01
Irf4 mean expression value relative to vehicle group [1, 4]: 0.92
Irf5 mean expression value relative to vehicle group [1, 4]: 0.43
Irf8 mean expression value relative to vehicle group [1, 4]: 1.46
Mx1 mean expression value relative to vehicle group [1, 4]: 0.6
Ncam1 mean expression value relative to vehicle group [1, 4]: −0.2
Pml mean expression value relative to vehicle group [1, 4]: 0.62
Ptpn6 mean expression value relative to vehicle group [1, 4]: 0.36
Socs3 mean expression value relative to vehicle group [1, 4]: 0.09
Tyk2 mean expression value relative to vehicle group [1, 4]: 0.36
Vcam1 mean expression value relative to vehicle group [1, 4]: 0.13
B2m mean expression value relative to vehicle group [1, 5]: 0.03
Btk mean expression value relative to vehicle group [1, 5]: 0.06
Cd14 mean expression value relative to vehicle group [1, 5]: 0.51
Cd36 mean expression value relative to vehicle group [1, 5]: −0.08
Cd74 mean expression value relative to vehicle group [1, 5]: 1.14
Ctsc mean expression value relative to vehicle group [1, 5]: 0.82
Ctss mean expression value relative to vehicle group [1, 5]: 1.2
Cybb mean expression value relative to vehicle group [1, 5]: 0.8
Fcgr1 mean expression value relative to vehicle group [1, 5]: 1.12
H2-Aa mean expression value relative to vehicle group [1, 5]: 1.27
H2-Ab1 mean expression value relative to vehicle group [1, 5]: 2.25
H2-DMa mean expression value relative to vehicle group [1, 5]: 1.16
H2-DMb2 mean expression value relative to vehicle group [1, 5]: 0.65
H2-Ea-ps mean expression value relative to vehicle group [1, 5]: 0
H2-Eb1 mean expression value relative to vehicle group [1, 5]: 1.29
H2-K1 mean expression value relative to vehicle group [1, 5]: 0.04
H2-Ob mean expression value relative to vehicle group [1, 5]: 1.61
H2-Q10 mean expression value relative to vehicle group [1, 5]: −0.28
Ly96 mean expression value relative to vehicle group [1, 5]: 0.27
Ncf4 mean expression value relative to vehicle group [1, 5]: 0.86
Psmb9 mean expression value relative to vehicle group [1, 5]: 0.03
Tap1 mean expression value relative to vehicle group [1, 5]: 0.12
Tlr1 mean expression value relative to vehicle group [1, 5]: 0.62
Tlr2 mean expression value relative to vehicle group [1, 5]: 0.36
Tlr4 mean expression value relative to vehicle group [1, 5]: 0.21
expression of genes associated with cytotoxic immune cell function and T cell activation ([1]; tumors): Increased expression
tumor growth inhibition (TGI) ([2]; SEQ ID NO: 2 monotherapy 1.5 mg/kg s.c. once every 3 days): 25%
tumor growth inhibition (TGI) ([2]; SEQ ID NO: 2 monotherapy 3 mg/kg s.c. once every 3 days): 51%
median survival time ([2]; SEQ ID NO: 2 monotherapy 1.5 mg/kg s.c.): 18 days
median survival time ([2]; SEQ ID NO: 2 monotherapy 3 mg/kg s.c.): 22 days
complete response (number) ([2]; SEQ ID NO: 2 monotherapy arms): 1
durable complete tumor regressions ([2]; either dose (1.5 or 3 mg/kg) of SEQ ID NO: 2 monotherapy, groups pooled): 1/20
tumor growth outcome (summary in words) ([2]; treatment arm summaries): modest tumor growth inhibition
